In the supplement of paper PMC9170038:

Test system: MS2 coat protein
Assay: apparent KD of MS2 coat protein; designed switch direction (-1 OFF switch, 1 ON switch): 1; higher = weaker reporter binding
Outline: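 The buffer was Tris-HCl pH 7.5 with KCl, MgCl2, BSA, DTT, tRNA and Tween-20. In it, SNAP-549-labelled MS2 coat protein was titrated in doubling steps from 0.7 or 1.5 nM to 3 µM over chip-bound RNA switches transcribed by stalled E. coli RNA polymerase on Illumina chips. Apparent KD is the per-design median over clusters of curve fits to normalised fluorescence.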

[1] = input ligand: microRNA oligo, concentration not stated
[2] = Eterna round: R95, input ligand: FMN 200 uM
[3] = Eterna round: R95, input ligand: microRNA oligo, concentration not stated
[4] = Eterna round: R95, input ligand: none

| Sequence | apparent KD of MS2 coat protein (input ligand: FMN 200 uM) [nM] | apparent KD of MS2 coat protein [1] [nM] | apparent KD of MS2 coat protein (input ligand: none) [nM] | apparent KD of MS2 coat protein [2] [nM] | apparent KD of MS2 coat protein [3] [nM] | apparent KD of MS2 coat protein [4] [nM] |
| --- | --- | --- | --- | --- | --- | --- |
| GUAGCAUACCGAGGAUAUUCAUUACAUGAGGAUCACCCAUGUUAGGCCAGCAUUAGCUGGCCUUGGGAGAAGGCGGAAUGCUAC [Xeonanis - 20 Mod53] (Eterna round: R96, puzzle: Same State NG 2) | 14 | 29.1 | 37.8 |  |  |  |
| AGCUAUUAAUCAGGAUAUGGUCACAUGAGGAUCACCCAUGUGUAGAUGAUAAAAUGUGGUCUACACUAGAAGGGAUUGCUAACA [SameState NG2 #60] (Eterna round: R96, puzzle: Same State NG 2) | 524 | 216 | 236 |  |  |  |
| GGUCGGACUCAACAUGAGGAUCACCCAUGUGCGGAAACGCCAUAGGAUAUCUGUCCGAAAAGGUCAGAGAAGGGUGAACCGACC [Fiskers NG3ss - 66] (Eterna round: R96, puzzle: Same State NG 3) | 435 | 263 | 471 |  |  |  |
| CCGCAUUCAGCAGGAUAUCUCAACCGGAAGAUGAGAGAAGGGUUGAUUACAUGAGGAUCACCCAUGUCCAAGCAUGCGAGAGCC [Eternabot solution 23] (Eterna round: R96, puzzle: Same State NG 1) | 500 | 754 | 188 |  |  |  |
| GCUCGACGUAUGGCCUACAUGAGGAUCACCCAUGUGACUGGGCAGGAUAUCUAAAUGCAGAAUGUAGAGAAGGGCCCGUCGAGC [SameState NG3 #49] (Eterna round: R96, puzzle: Same State NG 3) | 163 | 99.6 | 188 |  |  |  |
| ACAUGAGAGUGAGGAUAUGGUGUACCUACAUGUGACAUGAGGAUCACCCAUGUGGUAAGUAUGACUCAGAAGGCACAGAUAUGU [Equivalance 77 - Jieux - Same State NG 2] (Eterna round: R96, puzzle: Same State NG 2) | 16.2 | 59.4 | 103 |  |  |  |
| GAAAAGGCAACGCAGGAUAUGAAAGGUGAAACAUGAGGAUCACCCAUGUGCUACCUUCCGAUAAAUCAGAAGGGCGACGCCUAAA [Usbemaus] (puzzle: Same State 2) |  |  |  | 9.33 | 8.96 | 11.1 |
| GGGCCAGCCUGUGCUGGGCUUUAGCAUGCACAUGAGGAUCACCCAUGUCGUGUACAUGCUUUUUGCUCGUCUUUAAA [Photon Torp-08] (puzzle: Sensor for hsa-mir-208a) |  |  |  | 80.2 | 17.4 | 84.1 |
| CCUGCAAUUAACGCCUACAUGAGGAUCACCCAUGUAUGUAGGCAGGAUAUCGUUUGCUUUGCAAACGAGAAGGGCUGUAGUAGC [salish99_SSNG3_R04_002] (Eterna round: R96, puzzle: Same State NG 3) | 18.7 | 15.4 | 18.9 |  |  |  |
| GGUCCAGCCUGAGCUGGACAAAAGCAUGUACAUGAGGAUCACCCAUGUCAUGUACAAGCUUUUUGCUCGUCAUAAAU [Mat - hsa-mir-208a - 96] (puzzle: Sensor for hsa-mir-208a) |  |  |  | 702 | 13.1 | 668 |
| GGCACAGCGUGAGGAUAUCGGUACGCACGUAGUCGAGAAGGUACCUGAAAUGGUACACAUGAGGAUCACCCAUGUGACUGGGCA [Eternabot solution 14] (Eterna round: R96, puzzle: Same State NG 1) | 40.7 | 27.1 | 41.6 |  |  |  |
| UGGUACAUGGGAGGAUAUCUCAUGGUGACAUGAGGAUCACCCAUGUAGUUGGUGCCGAAAGGCUGAGAGAAGGCCCAUGUACCU [JL SSNG1 3.76] (Eterna round: R96, puzzle: Same State NG 2) | 62.9 | 59.3 | 99.9 |  |  |  |
| GCUCGAUGAGAGUCCUACAUGAGGAUCACCCAUGUAUGUGGGCAGGAUAUCUACAUGCAGAAUGUAGAGAAGGGCCCGUCGAGC [SameState NG3 #57] (Eterna round: R96, puzzle: Same State NG 3) | 35.2 | 106 | 187 |  |  |  |
| AAUUAUUAACAUGAGGAUCACCCAUGUAUUAUUAUUAACAAGCUUUGCUCUACAUGGGUGCUCGUCUUAUUUAUUAA [AthenaIerokomos] (puzzle: Sensor for hsa-mir-208a version 2) |  |  |  | 13.7 | 68.6 | 32.5 |
| AGGCUCAGACGAGGAUAUAUGUGAUCACAUGAGGAUCACCCAUGUCUCGAGCUUCGGCUCGAGACAUAGAAGGCGUCUGAGCCA [SSNG2/3-A1] (Eterna round: R96, puzzle: Same State NG 2) | 505 | 8.91 | 21.4 |  |  |  |
| GGUGGGUUGCUGCCGGCACAUGAGGAUCACCCAUGUUUUGGGAAGGAUAUGGUACCUCUUUGGUGCCAGAAGGUCCCGUUGGUG [salish99_SSNG3_r04_713] (Eterna round: R96, puzzle: Same State NG 3) | 2020 | 503 | 1740 |  |  |  |

| Sequence | apparent KD of MS2 coat protein (input ligand: FMN 200 uM) [nM] | apparent KD of MS2 coat protein [1] [nM] | apparent KD of MS2 coat protein (input ligand: none) [nM] | apparent KD of MS2 coat protein [2] [nM] | apparent KD of MS2 coat protein [3] [nM] | apparent KD of MS2 coat protein [4] [nM] |
| --- | --- | --- | --- | --- | --- | --- |
| CAGCGCUGUCGAGAGGAUAUGCGGUGAUAGACAUGAGGAUCACCCAUGUUAGCGAUAGCAUUACGGUAGAAGGCUCUACAGCUGC [Soteed - 12] (puzzle: Same State 2) |  |  |  | 29 | 73.3 | 103 |
| CCAACGUACAAUUUAGAUCUACAUGAGGAUCACCCAUGUACGGAGGAUAUCAGCUCGAAUAGAGCUGAGAAGGCCGAAUUAAUU [SSNG3/2-A1] (Eterna round: R96, puzzle: Same State NG 3) |  | 248 |  |  |  |  |
| AUACAAAACACAAAUACAAACAAAUACAAACAUGAGGAUCACCCAUGUGCAAUACGACUCUUUAUGGCUGGUCUUCA [Onvete] (Eterna round: R96, puzzle: Sensor for hsa-mir-208a) | 87.7 | 60.1 | 107 |  |  |  |
| GCCGGCUGGUGAGGAUAUGGCGCCUUGUUGGUGCCAGAAGGCAUGUCUUUUGACAUGAGGAUCACCCAUGUGUUGUCGUUGGCG [salish99_SSNG1_r04_613] (Eterna round: R96, puzzle: Same State NG 1) | 221 | 72.3 | 47.8 |  |  |  |
| ACUAAAACUGCAGGAUAUGUCCGGAACUCCGUUACAGAAGGGCAACGCACUGUUGAGGGCACGACAUGAGGAUCACCCAUGUAG [Eternabot solution 46] (Eterna round: R96, puzzle: Same State NG 1) | 20.9 | 22.5 | 26.8 |  |  |  |
| UGGCUCAGACUAGGAUAUAUGUGGUCACAUGAGGAUCACCCAUGUCUCGAGCUUCGGCUCGAGGCAUAGAAGGAGUCUGAGCCU [SSNG2/5-D3] (Eterna round: R96, puzzle: Same State NG 2) | 249 | 15.3 | 59.9 |  |  |  |
| AUUAAACAUGAGGAUCACCCAUGUCAACUAAGUCGAGGAUAUGGGCAAAUAAAAUAAGAACCAGAAGGCGAAUAAU [salish99_ss1_r3_074] (puzzle: Same State 1) |  |  |  | 55.9 | 347 | 260 |
| UUCACCUUUUUUUACAUGAGGAUCACCCAUGUUUUUUUUACGUAGGAUAUCGAUGCUUGUUUUUUCGAGAAGGACGAUGUAAGU [JR_SSND3_Sub052] (Eterna round: R96, puzzle: Same State NG 3) | 16.7 | 12.2 | 18.2 |  |  |  |
| GUGGUCAGACAUGAGGAUCACCCAUGUGGAAUAAAUAAGGAGAAGGAUAUUGAAUAUAGGAUAUACAAGAAGGUCUGGUUGGUG (Eterna round: R96, puzzle: Same State NG 3) |  | 71.3 |  |  |  |  |
| UUUAUUUAUGCAGGAUAUGAUUAACAUGAGGAUCACCCAUGUGGUGUUGUGAGUAAGGAGAGUGAUCAGAAGGGCAUUUUUUUU [JMF's solution 76] (Eterna round: R96, puzzle: Same State NG 2) | 610 | 396 | 487 |  |  |  |
| GACCGCGAGGAAGGAUAUGGAGCCUUAUUGGCUCCAGAAGGUCCAUAAAGGACAUGAGGAUCACCCAUGUGGUGUGAAGCGGUC [Fiskers NG1ss - 18] (Eterna round: R96, puzzle: Same State NG 1) | 65.5 | 407 | 627 |  |  |  |
| GGAGCCGAUACUGAGGAUAUUCAUAUUAAAACAUGAGGAUCACCCAUGUAGGCCAGAAGGCCUUGGGAGAAGGCAGAUCGGCUCC [Biseusra - 4] (puzzle: Same State 2) |  |  |  | 19.5 | 301 | 450 |
| GAGGGACAGACCAACAUGAGGAUCACCCAUGUCCUCGCAGGUCAGGAUAUUAUGAGGAUCACCCGUGAGAAGGGACGGUGAACC (Eterna round: R96, puzzle: Same State NG 3) | 606 | 468 | 488 |  |  |  |
| AGCUAUUAAUCAGGAUAUGGUCACAUGAGGAUCACCCAUGUAACGAUGAUAUAAUGUGGUCAAGACUAGAAGGGAUUGCUAACA [SameState NG2 #66] (Eterna round: R96, puzzle: Same State NG 2) | 169 | 221 | 191 |  |  |  |
| GGAGCCGGUACUGAGGAUAUUCGUAUUAAAACAUGAGGAUCACCCAUGUAGGCCAGAAGGCCUUGGGAGAAGGCAGACCAGCUCG [Atgexeedri - 5] (puzzle: Same State 2) |  |  |  | 14.3 | 26 | 40.5 |
